Test results: publication PMC11459465

How the values were obtained:
[1] = target: JR-FL IDL trimer (HIV-1 strain JR-FL (clade B)); assay: cryo-EM structure
[2] = target: WITO IDL trimer (HIV-1 strain WITO (clade B)); assay: cryo-EM structure
[3] = target: BG505 IDL trimer (HIV-1 strain BG505 (clade A)); assay: negative-staining electron microscopy
[4] = target: BG505 IDL trimer (HIV-1 strain BG505 (clade A)); assay: cryo-EM structure

Substance JR-FL IDL trimer (complex) has a stoichiometry N [1] of 3.
WITO IDL trimer (complex) gave a stoichiometry N [2] of 3.
Work on BG505 IDL trimer (complex) yielded a stoichiometry N [3] of 3 and a stoichiometry N [4] of 3.
